According to publication PMC10767740, “Recombinant Full-Length TDP-43 Oligomers Retain Their Ability to Bind RNAs, Are Not Toxic, and Do Not Seed TDP-43 Aggregation in Vitro” (ACS Chemical Neuroscience, 2023):

Target: the molecule itself
Assay: ThT aggregation kinetics + TEM; 5 μM core peptide, 20 μM ThT, with or without 2.5% fibrillar seeds of the same peptide; 25 °C, 40 h, shaken 5 s at 100 rpm before each reading; TEM at the end

B1: TDP-43 core peptide 279–360 (peptide, UniProt Q13148 279-360, looked up)
chain: NPGGFGNQGGFGNSRGGGAGLGNNQGSNMGGGMNFGAFSINPAMMAAAQAALQSSWGMMGMLASQQNQSGPSGNNQNQGNMQ
notes: also called amyloid core peptide; source: lyophilized, disaggregated in HFIP/TFA
binding result: binds
